Laboratory results: patent US20150246947A1 (BAXALTA, published 2015)

Target: T1, human Protein S (human, UniProt P07225 42-676)
T1 construct: Called 'full length Protein S' / 'human full-length Protein S'; It was coated on plates (ELISA), Eu-labeled (LANCE) or immobilized on a chip (Biacore); also called PS; full length Protein S
T1 sequence: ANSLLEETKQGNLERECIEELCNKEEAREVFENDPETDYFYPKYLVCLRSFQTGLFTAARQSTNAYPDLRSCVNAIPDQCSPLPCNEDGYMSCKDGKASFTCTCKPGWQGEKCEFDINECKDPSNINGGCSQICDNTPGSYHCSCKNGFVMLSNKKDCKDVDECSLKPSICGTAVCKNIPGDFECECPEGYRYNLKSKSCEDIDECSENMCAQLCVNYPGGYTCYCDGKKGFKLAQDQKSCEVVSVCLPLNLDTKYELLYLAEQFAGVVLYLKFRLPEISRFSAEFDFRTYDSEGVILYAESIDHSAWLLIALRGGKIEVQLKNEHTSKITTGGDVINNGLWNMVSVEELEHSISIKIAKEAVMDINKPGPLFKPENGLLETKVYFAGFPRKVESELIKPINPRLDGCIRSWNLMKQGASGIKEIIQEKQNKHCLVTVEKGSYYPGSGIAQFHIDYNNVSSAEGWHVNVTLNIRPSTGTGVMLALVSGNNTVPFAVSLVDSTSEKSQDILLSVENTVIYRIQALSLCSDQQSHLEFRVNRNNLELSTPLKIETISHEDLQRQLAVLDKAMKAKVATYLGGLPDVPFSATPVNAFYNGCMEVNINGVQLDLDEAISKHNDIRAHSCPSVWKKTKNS
Test: LANCE TR-FRET competition; Eu-labeled Protein S; competitor tracer JBS0684
Protocol: Peptides also were characterized in a competition, homogenous europium-based TR-FRET assay (LANCE IC50 assay) using JBS0684 as a tracer (i.e., competitor for Protein S binding). The following reagents were mixed together in a Perkin-Elmer ProxiPlate MTP well (indicated concentration is the final concentration): Eu-labeled Protein S (10 nM), Ulight™-labeled Streptavidin (100 nM), tracer (JBS0684 (300 nM)), and peptide (titrated in three-fold dilution steps). The final volume was 50 μl/well. The reaction mix was incubated for 1 hour at room temperature, then the fluorescence emission at 665 nm was recorded on a multi-mode reader (SpectraMax® M5, Molecular Devices) using the following instrument settings: Ex 340 nm, Em 665 nm, delay 50 μsec, integration 100 μsec, reads 100. Binding of tracer peptides to soluble europium-labeled Protein S was detected by Streptavidin labeled with an acceptor fluorophor (ULight™). Inhibition of tracer-binding to Protein S by a non-biotinylated peptide results in a decrease of TR-FRET between the Eu-labeled Protein S and ULight™-labeled Streptavidin. IC50 values were obtained from peptide titration curves at constant tracer concentration using non-linear regression of the fluorescence emission signals at 665 nm.
Several peptides having multiple substitutions in the JBS2572 amino acid sequence were synthesized and evaluated using LANCE IC50 and CAT assays described above. For the assays, pooled normal plasma was supplemented with 3 nM APC and triggered with 6 pM TF, and 15 μM phospholipids (DOPC/POPS 80/20). Stock APC was diluted with TF-PL-MIX to 24 nM (plasma concentration: 3 nM).

- IC50: 9.7 nM
B1: JBS2572 (peptide)
peptide: Ac-TGLVSAGWYDYNFDHYREFT-NH2
notes: also called parent peptide JBS2572
